Paper doi:10.1101/2022.01.27.478073 (bioRxiv, 2022)

Target: T1, His-AtNRT1.4 (Arabidopsis, UniProt Q9SZY4 1-577)
T1 sequence (looked up): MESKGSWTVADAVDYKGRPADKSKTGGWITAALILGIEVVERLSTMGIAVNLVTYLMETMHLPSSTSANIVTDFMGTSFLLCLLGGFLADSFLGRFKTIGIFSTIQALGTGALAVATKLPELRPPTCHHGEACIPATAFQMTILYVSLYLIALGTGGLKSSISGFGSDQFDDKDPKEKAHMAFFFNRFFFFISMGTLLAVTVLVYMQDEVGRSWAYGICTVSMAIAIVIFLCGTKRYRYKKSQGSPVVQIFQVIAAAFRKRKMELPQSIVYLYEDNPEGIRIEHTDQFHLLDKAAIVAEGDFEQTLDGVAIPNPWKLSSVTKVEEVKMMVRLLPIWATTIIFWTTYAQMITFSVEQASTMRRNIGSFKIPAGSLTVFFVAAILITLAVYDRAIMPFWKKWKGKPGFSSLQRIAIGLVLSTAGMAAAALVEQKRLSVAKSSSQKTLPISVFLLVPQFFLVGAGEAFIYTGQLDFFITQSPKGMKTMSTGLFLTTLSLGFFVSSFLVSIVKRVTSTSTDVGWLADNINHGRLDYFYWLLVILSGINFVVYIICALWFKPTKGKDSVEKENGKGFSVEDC
Test: pull-down

B1: GST-AtGPA1 (natural protein, Arabidopsis, UniProt P18064 1-383, looked up)
chain: MGLLCSRSRHHTEDTDENTQAAEIERRIEQEAKAEKHIRKLLLLGAGESGKSTIFKQIKLLFQTGFDEGELKSYVPVIHANVYQTIKLLHDGTKEFAQNETDSAKYMLSSESIAIGEKLSEIGGRLDYPRLTKDIAEGIETLWKDPAIQETCARGNELQVPDCTKYLMENLKRLSDINYIPTKEDVLYARVRTTGVVEIQFSPVGENKKSGEVYRLFDVGGQRNERRKWIHLFEGVTAVIFCAAISEYDQTLFEDEQKNRMMETKELFDWVLKQPCFEKTSFMLFLNKFDIFEKKVLDVPLNVCEWFRDYQPVSSGKQEIEHAYEFVKKKFEELYYQNTAPDRVDRVFKIYRTTALDQKLVKKTFKLVDETLRRRNLLEAGLL
binding result: binds
